Experimental data as given in article PMC11067744.

Biological target: YenB (UniProt B6A880)
Test: SEC-MALS

Sequence of UniProt B6A880 (B6A880 whole entry): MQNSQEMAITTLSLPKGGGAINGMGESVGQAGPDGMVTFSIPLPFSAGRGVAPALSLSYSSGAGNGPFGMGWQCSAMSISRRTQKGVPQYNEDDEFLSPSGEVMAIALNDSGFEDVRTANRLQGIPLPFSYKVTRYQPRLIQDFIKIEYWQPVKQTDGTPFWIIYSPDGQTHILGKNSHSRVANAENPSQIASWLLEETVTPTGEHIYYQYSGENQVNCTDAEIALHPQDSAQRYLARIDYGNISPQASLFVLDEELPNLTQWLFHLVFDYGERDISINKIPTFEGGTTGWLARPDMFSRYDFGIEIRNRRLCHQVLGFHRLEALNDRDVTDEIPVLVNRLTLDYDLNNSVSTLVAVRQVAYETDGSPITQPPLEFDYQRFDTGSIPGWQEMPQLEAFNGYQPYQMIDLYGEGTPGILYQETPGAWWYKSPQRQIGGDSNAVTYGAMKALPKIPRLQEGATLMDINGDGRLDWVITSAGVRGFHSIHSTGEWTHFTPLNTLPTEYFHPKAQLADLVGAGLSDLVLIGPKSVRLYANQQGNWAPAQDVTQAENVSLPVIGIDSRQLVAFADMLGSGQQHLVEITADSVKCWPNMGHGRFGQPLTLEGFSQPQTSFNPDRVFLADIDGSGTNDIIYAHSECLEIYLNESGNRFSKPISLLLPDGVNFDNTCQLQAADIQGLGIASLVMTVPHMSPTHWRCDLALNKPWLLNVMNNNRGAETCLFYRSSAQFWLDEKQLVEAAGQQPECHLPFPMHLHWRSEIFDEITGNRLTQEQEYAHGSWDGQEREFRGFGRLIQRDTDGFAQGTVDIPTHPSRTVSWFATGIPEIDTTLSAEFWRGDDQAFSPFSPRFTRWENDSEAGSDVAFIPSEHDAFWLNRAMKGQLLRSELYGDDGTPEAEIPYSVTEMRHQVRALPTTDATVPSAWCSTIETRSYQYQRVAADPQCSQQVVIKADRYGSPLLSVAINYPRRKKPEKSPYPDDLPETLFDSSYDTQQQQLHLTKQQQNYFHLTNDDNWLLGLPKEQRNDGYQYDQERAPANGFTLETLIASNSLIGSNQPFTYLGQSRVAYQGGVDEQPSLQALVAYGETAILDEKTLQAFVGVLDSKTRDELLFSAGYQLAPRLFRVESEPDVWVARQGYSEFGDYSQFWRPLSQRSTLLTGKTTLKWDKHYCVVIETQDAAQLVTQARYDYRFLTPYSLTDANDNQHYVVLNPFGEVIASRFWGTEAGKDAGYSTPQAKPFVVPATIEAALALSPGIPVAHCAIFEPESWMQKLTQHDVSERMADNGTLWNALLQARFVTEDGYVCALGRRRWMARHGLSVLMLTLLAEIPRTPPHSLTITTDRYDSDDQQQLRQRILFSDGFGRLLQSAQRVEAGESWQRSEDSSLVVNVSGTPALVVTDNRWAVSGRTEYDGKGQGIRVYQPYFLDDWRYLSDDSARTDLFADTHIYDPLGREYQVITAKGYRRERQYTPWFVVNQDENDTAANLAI

YenC3^CTD (domain or fragment)
stoichiometry N: 1

YenC3^NTD (domain or fragment)
stoichiometry N: 1
